We go through six substances from article PMC5864733.

What all share (test): SEC
(In gel filtration, larger molecules generally elute earlier.)

For assay [1], the target named is CsrA-Cdel (residues 1-44) (enteropathogenic E. coli (EPEC) O127:H6 E2348/69) (UniProt P69913).
Assay [2] has as its target CsrA tetra-mutant (residues 1-61, R31A + K38A + H43A + R44A) (enteropathogenic E. coli (EPEC) O127:H6 E2348/69) (UniProt P69913).
Assay [3] has as its target CesT-E121A/Y152A (residues 1-156, E121A + Y152A) (enteropathogenic E. coli (EPEC) O127:H6 E2348/69) (UniProt P21244).
In assay [4] the target is CesT-Y152A (residues 1-156, Y152A) (enteropathogenic E. coli (EPEC) O127:H6 E2348/69) (UniProt P21244).
The target in assay [5] is CsrA (residues 1-61), GST tag removed (enteropathogenic E. coli (EPEC) O127:H6 E2348/69) (UniProt P69913).
Assay [6] has as its target CesT-E121A (residues 1-156, E121A) (enteropathogenic E. coli (EPEC) O127:H6 E2348/69) (UniProt P21244).

Usually stoichiometry N stands for a count of units in the complex or per binding partner. For the substance “CsrA-Cdel (residues 1-44) (from UniProt P69913 1-44) (domain or fragment)”, in assay [1], the stoichiometry N came out at 2.
As to “CsrA tetra-mutant (residues 1-61, R31A + K38A + H43A + R44A) (from UniProt P69913 1-61) (natural protein)”, in assay [2], the stoichiometry N worked out at 2.
In the case of “CesT-E121A/Y152A (residues 1-156, E121A + Y152A) (from UniProt P21244 1-156) (natural protein)”, in assay [3], the stoichiometry N worked out at 2.
The substance “CesT-Y152A (residues 1-156, Y152A) (from UniProt P21244 1-156) (natural protein)” had a stoichiometry N in assay [4] of 2.
Regarding “CsrA (residues 1-61), GST tag removed, P69913 1-61 (natural protein; other documents disagree on this pair)”, the stoichiometry N in assay [5] worked out at 2.
“CesT-E121A (residues 1-156, E121A) (from UniProt P21244 1-156) (natural protein)” showed a stoichiometry N in assay [6] of 2.
